Publication PMC5922973, “Topoisomerase VI senses and exploits both DNA crossings and bends to facilitate strand passage” (eLife, 2018)

Legend:
[1] = biological target: the molecule itself; assay: FRET or BRET; bulk FRET between Alexa555 and Alexa647 on Cys155 of the two Top6B in the holoenzyme; 200 nM topo VI with 100 uM bp sheared salmon-sperm (short linear) DNA, before and over time after 1 mM AMPPNP; 50 mM potassium glutamate, 20 mM HEPES-KOH pH 7.5, 10 mM MgCl2
[2] = biological target: the molecule itself; assay: FRET or BRET; bulk FRET between Alexa555 and Alexa647 on Cys155 of the two Top6B in the holoenzyme; 200 nM topo VI with 100 uM bp supercoiled plasmid DNA, before and over time after 1 mM AMPPNP; 50 mM potassium glutamate, 20 mM HEPES-KOH pH 7.5, 10 mM MgCl2

| Protein | binding result [1] | binding result [2] |
| --- | --- | --- |
| M. mazei Top6B cyslite-155C, Alexa555/Alexa647-labeled, in the topo VI holoenzyme (enzyme, Methanosarcina mazei, Alexa Fluor 555 C2 maleimide or Alexa Fluor 647 C2 maleimide on Cys155, Top6B of Methanosarcina mazei topo VI, 'cys-lite' with Thr155 changed to cysteine; Stood in the assay as part of the A2B2 holoenzyme with Top6A; population is a mix of donor-acceptor (50%), acceptor-acceptor (25%) and donor-donor (25%) labeled enzymes; also called topo VI^cyslite-155C; TopoVI^cyslite-155C; not shown: His6, N-terminal, cleaved) METPIAEELAKKQKSISVAEFFEKNRQILGFDSAPRSLITTVKEAVDNALDACEEAGILPDILVQVERTGPDYVTVIIEDNGPGIVREQIPKVFAKLLYGSRFHALKQSRGQQGIGISAAVLYAQMTAGRHTKILSKTSPTAPAHYYELMINTSCNEPDILVDEVRDWFRPHGTQIELEMRAAYVKGRRQSIYEYLKATAIVNPHARITLIDPDGNEEVFERATDKMPEPAEEILPHPEGIELGTLMKMLHYTERQKLAPFLRYSFSKIGLLTAEEIAKAAGLDPEIDPHALGRHEARKLIEAFEKVKIMAPPTDALSPIGEDLIYRGLEKETTVDFIATSTRKPAVYSGNPFVVEVGMAYGGNLPKEEKISIMRFANRVPLLYQQGGCVTTHAVEDIKWKQYGLNQPGGGIPVGPVILLIHVASINVPFTSESKDAIADIPVIKEEIDLAIKEVARKLKHYLSKQSNLKKRREKEIIITKVLPKLAAKVAHVLEKDVPDINPVVAKIMGNLLVHRVIKNNGDGTVDVAIKVKNFGTSAYSFRVHEMLPAKVSGAKPEPKVVTMGNDYDYVWDISASAGSSKVLSYKIESASEEELQKLPQLIVEGIEEELVTGAKAFKGV | binds |  |
| M. mazei Top6B KGRR^AAA cyslite-155C, Alexa555/Alexa647-labeled, in the topo VI holoenzyme (enzyme, Methanosarcina mazei, Alexa Fluor 555 C2 maleimide or Alexa Fluor 647 C2 maleimide on Cys155, Top6B of Methanosarcina mazei topo VI, cyslite-155C with the KGRR^AAA mutations; Stood in the assay as part of the A2B2 holoenzyme with Top6A; also called Top6AB-KGRR^AAA cyslite-155C; KGRR^AAA FRET assay construct; not shown: His6, N-terminal, cleaved) METPIAEELAKKQKSISVAEFFEKNRQILGFDSAPRSLITTVKEAVDNALDACEEAGILPDILVQVERTGPDYVTVIIEDNGPGIVREQIPKVFAKLLYGSRFHALKQSRGQQGIGISAAVLYAQMTAGRHTKILSKTSPTAPAHYYELMINTSCNEPDILVDEVRDWFRPHGTQIELEMRAAYVAGAAQSIYEYLKATAIVNPHARITLIDPDGNEEVFERATDKMPEPAEEILPHPEGIELGTLMKMLHYTERQKLAPFLRYSFSKIGLLTAEEIAKAAGLDPEIDPHALGRHEARKLIEAFEKVKIMAPPTDALSPIGEDLIYRGLEKETTVDFIATSTRKPAVYSGNPFVVEVGMAYGGNLPKEEKISIMRFANRVPLLYQQGGCVTTHAVEDIKWKQYGLNQPGGGIPVGPVILLIHVASINVPFTSESKDAIADIPVIKEEIDLAIKEVARKLKHYLSKQSNLKKRREKEIIITKVLPKLAAKVAHVLEKDVPDINPVVAKIMGNLLVHRVIKNNGDGTVDVAIKVKNFGTSAYSFRVHEMLPAKVSGAKPEPKVVTMGNDYDYVWDISASAGSSKVLSYKIESASEEELQKLPQLIVEGIEEELVTGAKAFKGV |  | binds |
| M. mazei Top6B H2TH^AAA cyslite-155C, Alexa555/Alexa647-labeled, in the topo VI holoenzyme (enzyme, Methanosarcina mazei, Alexa Fluor 555 C2 maleimide or Alexa Fluor 647 C2 maleimide on Cys155, Top6B of Methanosarcina mazei topo VI, cyslite-155C with the H2TH^AAA mutations; Stood in the assay as part of the A2B2 holoenzyme with Top6A; also called Top6AB-H2TH^AAA cyslite-155C; not shown: His6, N-terminal, cleaved) METPIAEELAKKQKSISVAEFFEKNRQILGFDSAPRSLITTVKEAVDNALDACEEAGILPDILVQVERTGPDYVTVIIEDNGPGIVREQIPKVFAKLLYGSRFHALKQSRGQQGIGISAAVLYAQMTAGRHTKILSKTSPTAPAHYYELMINTSCNEPDILVDEVRDWFRPHGTQIELEMRAAYVKGRRQSIYEYLKATAIVNPHARITLIDPDGNEEVFERATDKMPEPAEEILPHPEGIELGTLMKMLHYTERQKLAPFLAYSFSAIGLLTAEEIAKAAGLDPEIDPHALGRHEARKLIEAFEKVAIMAPPTDALSPIGEDLIYRGLEKETTVDFIATSTRKPAVYSGNPFVVEVGMAYGGNLPKEEKISIMRFANRVPLLYQQGGCVTTHAVEDIKWKQYGLNQPGGGIPVGPVILLIHVASINVPFTSESKDAIADIPVIKEEIDLAIKEVARKLKHYLSKQSNLKKRREKEIIITKVLPKLAAKVAHVLEKDVPDINPVVAKIMGNLLVHRVIKNNGDGTVDVAIKVKNFGTSAYSFRVHEMLPAKVSGAKPEPKVVTMGNDYDYVWDISASAGSSKVLSYKIESASEEELQKLPQLIVEGIEEELVTGAKAFKGV |  | binds |
